Measurements published in US12692524B2, “Sialyltransferases and their use in producing sialylated oligosaccharides” (Chr. Hansen A/S, priority 2017, dated 2026).

How the values were obtained:
[1] = In vivo screening in E. coli #1363/#1730 with lactose as acceptor, sialyllactose identified by TLC; assay type: cell-based, Escherichia coli BL21(DE3); details: 1.5 mM lactose, 72 to 96 hours, qualitative via TLC
Procedure, shortened: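 E. coli BL21(DE3) #1363/#1730 expressing sialyltransferases were grown at 30 °C in mineral salts medium with 2% glucose and induced with 0.3 mM IPTG. After 1 h, 1.5 mM lactose was added, plus 1.5 mM sialic acid for #1730, and incubation ran 72–96 h. Cell lysates were analysed by silica TLC with thymol staining.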

[2] = In vitro kinetics (Km, Vmax), donor substrate CMP-Neu5Ac; assay type: biochemical; details: 30° C., pH7.5, protein extract
Description: (§1) To rank the best performing sialyltransferases, their Km values for donor and acceptor substrates were determined in vitro. Escherichia coli BL21(DE3) strain #287 was used for overproduction of the enzymes. Cells were incubated in 100 ml 2YT medium in shaking flasks supplemented with 100 μg m^−1 ampicillin at 30° C. until an OD600 of 0.3 was reached. Then, 0.3 mM IPTG was added and the incubation was continued for 12 to 16 hours. Cells were harvested by centrifugation and mechanically disrupted in a defined volume of 50 mM Tris-HCl pH7.5 using glass beads. The protein extract was kept on ice until the assay started. The in vitro assay was carried out in a total volume of 50 μl including 50 mM Tris-HCl pH7.5, 5 mM MgCl2 and varying concentrations of CMP-Neu5Ac (0.05-30 mM) as well as of lactose or LNT (0.1-50 mM). The assay started with the addition of 35 to 750 μg protein extract. After 1 to 10 minutes of incubation at 30° C., the assay was inactivated at 95° C. for 5 minutes. Product formation was determined by mass spectrometry. Data were evaluated using the enzyme kinetic module of SigmaPlot v12.5 to calculate Km and Vmax.
(§2) Their kinetic parameters for CMP-Neu5Ac and LNT as well as lactose are depicted in Table 6.

[3] = In vitro kinetics (Km, Vmax), acceptor substrate lactose; assay type: biochemical; details: 30° C., pH7.5, protein extract
Description: as §1, §2

[4] = In vitro kinetics (Km, Vmax), acceptor substrate LNT; assay type: biochemical; details: 30° C., pH7.5, protein extract
Description: as §1, §2

[5] = Batch fermentation of LNT-producing E. coli BL21(DE3) #2130 expressing sialyltransferases, TLC of intracellular fraction; assay type: cell-based, Escherichia coli BL21(DE3); details: strain #2130, 3 mM lactose, 3 mM sialic acid, 48 hours after induction, validated by mass spectrometry
Source text: Escherichia coli BL21(DE3) strain #534 was used to construct a lacto-N-tetraose (LNT) producing strain. The β-1,3-N-acetylglucosaminyltransferase gene IgtA from Neisseria meningitidis MC58 (acc. no. NP_274923) was codon-optimized for expression in E. coli and prepared synthetically by gene synthesis. Together with the gene galT, encoding a galactose-1-phosphate uridylyltransferase from E. coli K-12 substr. MG1655 (acc. no. NP_415279), that was similarly obtained by gene synthesis, IgtA was inserted by transposition (SEQ ID NO: 188) using plasmid pEcomar-IgtA-galT. To enhance de novo synthesis of UDP-N-acetylglucosamine, genes encoding L-glutamine:D-fuctose-6-phosphate aminotransferase (glmS), phosphoglucosamine mutase from E. coli K-12 substr. MG1655 (glmM) and N-acetylglucosamine-1-phosphate uridyltransferase/glucosamine-1-phosphate acetyltransferase (glmU) from E. coli K-12 substr. MG1655 (acc. no. NP_418185, NP_417643, NP_418186, respectively) were codon-optimized and obtained by gene synthesis. The operon glmUM was cloned under the control of constitutive tetracyclin promoter Ptet while glmS was cloned under the constitutive PT5 promoter. […]

B1: SiaT9: sialyltransferase of Vibrio sp. JT-FAJ-16, acc. BAF91160, SEQ ID NO: 2 (protein, listed as Vibrio sp.)
chain: MNNDNSTTTNNNAIEIYVDRATLPTIQQMTKIVSQKTSNKKLISWSRYPITDKSLLKKINAEFFKEQFELTESLKNIILSENIDNLIIHGNTLWSIDVVDIIKEVNLLGKNIPIELHFYDDGSAEYVRIYEFSKLPESEQKYKTSLSKNNIKFSIDGTDSFKNTIENIYGFSQLYPTTYHMLRADIFDTTLKINPLRELLSNNIKQMKWDYFKDFNYKQKDIFYSLTNFNPKEIQEDFNKNSNKNFIFIGSNSATATAEEQINIISEAKKENSSIITNSISDYDLFFKGHPSATFNEQIINAHDMIEINNKIPFEALIMTGILPDAVGGMGSSVFFSIPKEVKNKFVFYKSGTDIENNSLIQVMLKLNLINRDNIKLISDI
[1]
  Production of sialyllactose in-vivo: 3′-SL
[2]
  Km: 960 µM
  Vmax CMP-Neu5Ac: 0.16 µmol/min
[3]
  Km: 2900 µM
  Vmax Lactose: 0.18 µmol/min
[4]
  Km: 2900 µM
  Vmax LNT: 0.15 µmol/min
[5]
  Intracellular formation of sialyllacto-N-tetraose: LST-a

B2: SiaT19: sialyltransferase of Photobacterium leiognathi JT-SHIZ-145, acc. BAF91416, SEQ ID NO: 30 (protein, listed as Photobacterium leiognathi)
chain: MNDNQNTVDVVVSTVNDNVIENNTYQVKPIDTPTTFDSYSWIQTCGTPILKDDEKYSLSFDFVAPELDQDEKFCFEFTGDVDGKRYVTQTNLTVVAPTLEVYVDHASLPSLQQLMKIIQQKNEYSQNERFISWGRIRLTEDNAEKLNAHIYPLAGNNTSQELVDAVIDYADSKNRLNLELNTNTGHSFRNIAPILRATSSKNNILISNINLYDDGSAEYVSLYNWKDTDNKSQKLSDSFLVLKDYLNGISSEKPNGIYSIYNWHQLYHSSYYFLRKDYLTVETKLHDLREYLGGSLKQMSWDTFSQLSKGDKELFLNIVGFDQEKLQQEYQQSELPNFVFTGTTTWAGGETKEYYAQQQVNVVNNAINETSPYYLGREHDLFFKGHPRGGIINDIILGSFNNMIDIPAKVSFEVLMMTGMLPDTVGGIASSLYFSIPAEKVSFIVFTSSDTITDREDALKSPLVQVMMTLGIVKEKDVLFWC
[1]
  Production of sialyllactose in-vivo: 6′-SL
[2]
  Km: 1100 µM
  Vmax CMP-Neu5Ac: 0.09 µmol/min
[3]
  Km: 3000 µM
  Vmax Lactose: 0.09 µmol/min
[4]
  Km: 2900 µM
  Vmax LNT: 0.04 µmol/min
[5]
  Intracellular formation of sialyllacto-N-tetraose: LST-b
